Data reported in patent US20070293656A1, “COLLAGEN BINDING PEPTIDES” (Epix Pharmaceuticals, Inc., priority 2005, published 2007).
Bridge positions count the residues as written; N and C are the ends. Ends that are not written are not given here.

Biological target: T1, human collagen type I (acid soluble, extracted from placenta, Sigma C7774) (human, UniProt P02452 162-1218; P08123 80-1119)
T1 construct: gelled and dried as a fibril film in the assay; also called dried human collagen; h-Collagen
T1 sequence (P02452 162-1218 limits assumed, chain 1 of 2): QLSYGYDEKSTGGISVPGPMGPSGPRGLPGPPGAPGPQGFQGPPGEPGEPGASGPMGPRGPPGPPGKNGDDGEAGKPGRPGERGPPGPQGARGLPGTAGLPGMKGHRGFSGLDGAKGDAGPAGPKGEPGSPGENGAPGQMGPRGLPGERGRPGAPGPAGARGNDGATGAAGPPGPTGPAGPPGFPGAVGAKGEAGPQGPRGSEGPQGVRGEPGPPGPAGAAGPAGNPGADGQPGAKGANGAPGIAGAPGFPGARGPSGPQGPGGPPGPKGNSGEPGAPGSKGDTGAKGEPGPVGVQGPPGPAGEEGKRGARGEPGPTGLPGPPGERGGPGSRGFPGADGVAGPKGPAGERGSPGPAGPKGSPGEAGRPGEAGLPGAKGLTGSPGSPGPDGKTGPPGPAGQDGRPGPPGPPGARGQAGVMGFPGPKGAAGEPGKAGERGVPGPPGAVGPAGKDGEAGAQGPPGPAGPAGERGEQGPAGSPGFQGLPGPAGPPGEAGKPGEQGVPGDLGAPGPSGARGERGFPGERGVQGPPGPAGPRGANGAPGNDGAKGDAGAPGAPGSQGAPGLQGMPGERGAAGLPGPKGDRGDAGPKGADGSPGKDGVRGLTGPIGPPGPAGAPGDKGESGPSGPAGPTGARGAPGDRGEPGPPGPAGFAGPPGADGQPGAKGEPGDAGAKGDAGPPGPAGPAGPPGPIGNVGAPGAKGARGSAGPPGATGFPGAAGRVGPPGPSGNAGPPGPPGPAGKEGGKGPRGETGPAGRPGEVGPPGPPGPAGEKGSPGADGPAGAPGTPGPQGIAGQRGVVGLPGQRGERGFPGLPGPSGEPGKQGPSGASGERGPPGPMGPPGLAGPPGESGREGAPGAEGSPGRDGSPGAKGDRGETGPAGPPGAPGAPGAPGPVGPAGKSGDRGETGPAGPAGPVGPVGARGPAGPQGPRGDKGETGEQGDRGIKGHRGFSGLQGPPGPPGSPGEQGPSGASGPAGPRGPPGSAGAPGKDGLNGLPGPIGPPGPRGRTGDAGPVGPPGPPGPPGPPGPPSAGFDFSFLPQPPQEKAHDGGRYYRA
T1 sequence (P08123 80-1119 limits assumed, chain 2 of 2): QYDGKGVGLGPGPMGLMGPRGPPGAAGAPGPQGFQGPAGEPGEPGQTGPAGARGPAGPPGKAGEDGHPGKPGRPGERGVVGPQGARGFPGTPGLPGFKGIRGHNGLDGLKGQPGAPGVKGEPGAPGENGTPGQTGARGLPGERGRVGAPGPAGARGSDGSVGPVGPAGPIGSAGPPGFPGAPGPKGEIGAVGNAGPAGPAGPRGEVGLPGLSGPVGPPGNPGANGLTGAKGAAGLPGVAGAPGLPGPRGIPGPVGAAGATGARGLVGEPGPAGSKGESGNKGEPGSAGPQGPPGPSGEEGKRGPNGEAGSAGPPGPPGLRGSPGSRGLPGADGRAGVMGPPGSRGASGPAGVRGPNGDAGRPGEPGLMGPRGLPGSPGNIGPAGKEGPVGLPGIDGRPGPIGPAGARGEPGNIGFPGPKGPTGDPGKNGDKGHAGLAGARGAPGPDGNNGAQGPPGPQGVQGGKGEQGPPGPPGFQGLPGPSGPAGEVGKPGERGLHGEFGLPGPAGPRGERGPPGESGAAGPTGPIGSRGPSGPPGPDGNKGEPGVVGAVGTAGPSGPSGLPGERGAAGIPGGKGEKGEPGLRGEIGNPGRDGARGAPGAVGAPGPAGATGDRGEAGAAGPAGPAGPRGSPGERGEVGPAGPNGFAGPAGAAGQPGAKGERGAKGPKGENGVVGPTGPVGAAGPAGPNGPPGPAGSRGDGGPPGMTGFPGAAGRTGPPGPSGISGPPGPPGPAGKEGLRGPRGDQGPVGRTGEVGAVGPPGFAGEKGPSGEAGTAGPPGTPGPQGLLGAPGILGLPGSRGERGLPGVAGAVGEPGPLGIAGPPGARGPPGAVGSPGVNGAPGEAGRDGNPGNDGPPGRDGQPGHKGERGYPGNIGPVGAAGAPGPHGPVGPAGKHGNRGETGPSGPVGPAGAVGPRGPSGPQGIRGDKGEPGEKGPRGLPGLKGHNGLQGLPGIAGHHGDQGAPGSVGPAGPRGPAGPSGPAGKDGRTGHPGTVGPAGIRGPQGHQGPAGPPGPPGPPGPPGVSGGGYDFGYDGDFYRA
Experiment: dried collagen assay
Protocol: An additional 90 μL is reserved in a HPLC glass vial as a measure of the total concentration.

| Binder | % bound |
| --- | --- |
| SWHCALVENSWQCSEA (disulfide 4-13 (inferred)) [SEQ ID NO: 73] | 1% |
| KWFCELMQDQWQCGSK (disulfide 4-13 (inferred)) [SEQ ID NO: 50] | 18% |
| KWFCELMHDQWQCGSK (disulfide 4-13 (inferred)) [SEQ ID NO: 51] | 18% |
| RWTCDLQRGDWQCSTI (disulfide 4-13 (inferred)) [SEQ ID NO: 57] | 11% |
| RWSCWLDENGWKCDGT (disulfide 4-13 (inferred)) [SEQ ID NO: 52] | 15% |
| HWSCYLGDNGWNCHDR (disulfide 4-13 (inferred)) [SEQ ID NO: 62] | 9% |
| GWVCMMRETDWNCSI (disulfide 4-13 (inferred)) [SEQ ID NO: 58] | 10% |
| HWQCRLTDYGWNCDER (disulfide 4-13 (inferred)) [SEQ ID NO: 59] | 10% |
| HWQCGEKMSFWSCELV (disulfide 4-13 (inferred)) [SEQ ID NO: 69] | 3% |
| EWHCVLNDFRWTCGGD (disulfide 4-13 (inferred)) [SEQ ID NO: 60] | 10% |
| AWFCSQKNRLWSCGET (disulfide 4-13 (inferred)) [SEQ ID NO: 49] | 19% |
| GWFCKLVDGNWECSTK (disulfide 4-13 (inferred)) [SEQ ID NO: 53] | 12% |
| KWSCYMVDHQWYCREF (disulfide 4-13 (inferred)) [SEQ ID NO: 61] | 9% |
| FWRCALLDGHWQCTDH (disulfide 4-13 (inferred)) [SEQ ID NO: 70] | 3% |
| SWNCHMIRNEWRCTGH (disulfide 4-13 (inferred)) [SEQ ID NO: 56] | 11% |
| NWYCSQALDNWSCKLR (disulfide 4-13 (inferred)) [SEQ ID NO: 63] | 8% |
| SWHCALMGSRWVCGQN (disulfide 4-13 (inferred)) [SEQ ID NO: 71] | 3% |
| EWHCVFIQGDWLCNSG (disulfide 4-13 (inferred)) [SEQ ID NO: 72] | 1% |
| TWICSHNDKGWTCGDQ (disulfide 4-13 (inferred)) [SEQ ID NO: 64] | 8% |
| MWNCTMTKSGWRCFEK (disulfide 4-13 (inferred)) [SEQ ID NO: 54] | 12% |
| SWNCHWRNQGWLCSGG (disulfide 4-13 (inferred)) [SEQ ID NO: 55] | 12% |
